Numbering of substitutions follows the chain as printed.
B1: TNT86 (antibody, human IgG1, kappa, V domains shown)
VH: QVQLLESGGGVVQPGGSLRLSCAASGFAFSIYDMNWVRQAPGKGLEWVSAISSGGGTTYYADSVKGRFTISRDNAKNSLYLQMNSLRAEDTAVYYCARHSGYGTHWGVLFAYWGRGTLVTVSS
VL: DIVMTQTPLSLSVTPGQPASISCRASQDIHGYLNWYQQKPGQSPQLLIYYTSILHSGVPDRFSGSGSGTDFTLKISRVEAEDVGVYFCQQGNTLPWTFGGGTKLEIKR
B2: TNT82 (antibody, human IgG1, kappa, V domains shown)
VH: B1 VH
VL: EIVLTQSPATLSLSPGERATLSCRASQDIHGYLNWYQQKPGQAPRLLIYYTSILHSGIPARFSGSGPGTDFTLTISSLEPEDFAVYYCQQGNTLPWTFGGGTKLEIKR
B3: TNT79 (antibody, human IgG1, kappa, V domains shown)
VH: B1 VH with Q1E, L5V, V11L, A28T, I31S, D33E, A50Y, G54S, G56S, T58I
VL: DIQMTQSPSSLSASVGDRVTITCRASQSISSYLNWYQQKPGKAPKLLIYAASSLQSGVPSRFSGSGSGTDFTLTISSLQPEDFATYYCQQGNTLPWTFGQGTKLEIKR
B4: TNT83 (antibody, human IgG1, kappa, V domains shown)
VH: B1 VH with Q1E, L5V, V11L, A28T, I31S, D33E, A50Y, G54S, G56S, T58I
VL: B2 VL
B5: TNT85 (antibody, human IgG1, kappa, V domains shown)
VH: B1 VH with Q1E, L5V, V11L, N35S, S49A, A50Y, A61P, S63T, A75S, S78T
VL: B1 VL
B6: TNT78 (antibody, human IgG1, kappa, V domains shown)
VH: B1 VH
VL: B3 VL
B7: TNT69 (antibody, human IgG1, kappa, V domains shown)
VH: B1 VH with Q1E, L5V, V11L, N35S, S49A, A50Y, A61P, S63T, A75S, S78T
VL: B3 VL with S28D, S30H, S31G, A50Y, A51T, S53I, Q55H, Y87F
B8: TNT73 (antibody, human IgG1, kappa, V domains shown)
VH: B1 VH with Q1E, L5V, V11L, N35S, S49A, A50Y, A61P, S63T, A75S, S78T
VL: B3 VL with L11V, S28D, S30H, S31G, N34A, A50Y, A51T
B9: TNT75 (antibody, human IgG1, kappa, V domains shown)
VH: B1 VH with Q1E, L5V, V11L, A28T, I31S, D33E, A50Y, G54S, G56S, T58I
VL: B3 VL with L11V, S28D, S30H, S31G, N34A, A50Y, A51T
B10: TNT87 (antibody, human IgG1, kappa, V domains shown)
VH: B1 VH with Q1E, L5V, V11L, A28T, I31S, D33E, A50Y, G54S, G56S, T58I
VL: B1 VL
B11: TNT74 (antibody, human IgG1, kappa, V domains shown)
VH: B1 VH
VL: B3 VL with L11V, S28D, S30H, S31G, N34A, A50Y, A51T
B12: TNT70 (antibody, human IgG1, kappa, V domains shown)
VH: B1 VH
VL: B3 VL with S28D, S30H, S31G, A50Y, A51T, S53I, Q55H, Y87F
B13: TNT80 (antibody, human IgG1, kappa, V domains shown)
VH: QVQLQESGPGLVKPSDTLSLTCTVSGFAFSIYDMSWIRQPPGKGLEWIAYISSGGGTTYYNPSLKSRVTISVDTSKNQFSLKLSSVTAADTAVYYCARHSGYGTHWGVLFAYWGRGTLVTVSS
VL: B3 VL
B14: TNT76 (antibody, human IgG1, kappa, V domains shown)
VH: B13 VH
VL: B3 VL with L11V, S28D, S30H, S31G, N34A, A50Y, A51T

target: T1, human CD22 (d1 to d7 domain according to NP_001762.2) (human, UniProt P20273 20-687); experiment: SPR; summary table, column 'CD22 KD (nM)'
T1 construct: domain: d1 to d7 domain; also called human CD22-gly; Siglec-2

Binder	Kd [nM]
B1	1.1
B2	0.9
B3	23
B4	6
B5	1.3
B6	25
B7	0.6
B8	14
B9	30
B10	0.7
B11	16

target: T2, human CD22 on B cells of human PBMCs (human, UniProt P20273 20-847); experiment: flow cytometry; Alexa Fluor 647-labelled antibody, human PBMCs
T2 construct: whole, on cells; also called CD22 on human B cells
Procedure: (§1) Binding of humanized anti-CD22 antibodies to human or cynomolgus PBMCs was measured by flow cytometry. Trima residuals were received from Vitalant and cynomolgus monkey whole blood were received from BioIVT. Both were diluted 1:4 with Phosphate Buffered Saline (PBS, Gibco). Diluted blood was split into two tubes and underplayed with 15 mL Ficoll-Paque (GE Healthcare). Tubes were centrifuged for 30 minutes at 400×g. PBMCs were collected from the interface, washed and resuspended in FACS buffer (PBS with 0.5% Bovine Serum Albumin (Gibco)). 100K PBMCs from human and cynomolgus monkey were plated in 96-well plates and pelleted by centrifugation for five minutes at 400×g and stained at 4° C. in 100 μl Fixable Viability Dye eFluor 780 (Thermo Fisher) diluted 1:4000 in PBS. Cells were centrifuged and stained at 4° C. in 100 μl FACS buffer for 30 minutes containing FcR Blocking Reagent (Miltenyi Biotec), anti-CD20 and Alexa Fluor 647 conjugated CD22 binding antibodies, which were labeled using Molecular Probes Alexa Fluor 647 Protein Labeling kit (Molecular Probes) according to manufacturer's protocol. Cells were centrifuged and washed twice in 200 μl FACS buffer and fixed in 100 μl 0.5% paraformaldehyde. Cells were analyzed on Attune NxT Flow Cytometer (Thermo Fisher), with subsequent data analysis by Flowjo 10.7 (Treestar). Dead cells were excluded by gating on the eFluor 780-negative population. CD20+ cells were gated to identify B cells and median fluorescent intensity for CD22 was determined.
(§2) The fold increase in binding was determined by calculating the ratio of CD22 median fluorescent intensity on CD20⁺ over CD20⁻ cells.

Binder	CD22: CD20+/CD20- (ratio of median fluorescent intensity) [fold]
B1	23.9
B2	23.9
B4	23
B5	23.1
B6	19.8
B7	25.4
B8	19.9
B9	26.7

target: T3, cynomolgus monkey CD22 on B cells of cynomolgus PBMCs (cynomolgus monkey); experiment: flow cytometry; Alexa Fluor 647-labelled antibody, cynomolgus PBMCs
T3 construct: whole, on cells; also called cynomolgus CD22; Cyno CD22
Procedure: as §1, §2

Binder	CD22: CD20+/CD20- (ratio of median fluorescent intensity) [fold]
B1	10.9
B2	12.6
B4	10.8
B5	9.6
B6	1.2
B7	14.9
B8	1.9
B9	6.7

target: T1, human CD22 (d1 to d7 domain according …); experiment: SPR; mAb supernatant captured on protein A chip, human CD22 injected
Procedure: Binding of humanized anti-CD22 antibodies to human CD22 was measured by surface plasmon resonance (SPR). For assessment of binding by SPR, biotinylated protein A (15 μg/mL) was immobilized to the surface of an NLC chip. 30 μL of mAb supernatant was added to 150 μL of PBS-T and captured over the protein A surface. Serial dilutions of human CD22-gly (300 nM, 3× dilution) were injected over the mAb-coated chips, and binding kinetics were determined. Chips were regenerated using 4:1 v/v of Pierce IgG elution butter/4M NaCl.

Binder	Kd [nM]	koff [s⁻¹]	kon [M⁻¹ s⁻¹]
B1	1.09	0.000141	130000
B2	0.937	0.000156	167000
B4	5.94	0.0016	269000
B5	1.25	0.000169	135000
B6	24.9	0.00485	195000
B7	0.624	0.000126	201000
B8	14.5	0.0023	158000
B9	30	0.0084	280000
B11	15.6		

target: T2, human CD22 on B cells of human PBMCs; experiment: flow cytometry; Alexa Fluor 647-labelled antibody on CD20+ B cells of human PBMCs
Procedure: as §1

Binder	CD22 Median Fluorescent Intensity on CD20+ cells
B12	1560
B1	1570
B2	1520
B3	1300
B4	1490
B5	1580
B6	1210
B7	1610
B8	1410
B13	1210
B9	1630
B10	1440
B14	1190
B11	1310

target: T3, cynomolgus monkey CD22 on B cells of …; experiment: flow cytometry; Alexa Fluor 647-labelled antibody on CD20+ B cells of cynomolgus PBMCs
Procedure: as §1

Binder	CD22 Median Fluorescent Intensity on CD20+ cells
B12	1290
B1	1430
B2	1170
B3	349
B4	1400
B5	1380
B6	112
B7	1410
B8	216
B13	159
B9	588
B10	1370
B14	140

Source: patent publication US20220380768A1 (TALLAC THERAPEUTICS, published 2022)
